B1: Tfb2 (natural protein, yeast, UniProt Q02939 1-513, looked up)
chain: MSDYSLKHSVTQYLEEIPQQVQNRLYTSPATCLAIYRILPPLAKFFIMAMVFNENEVPLLDLDKWVNSNGKLQFQNAIKSMKSLHLLIPNKSSGTLMINLNPTFKISLRNALTGGEVQNSFGVVVEENVVSLDLLDEYSANKWETILHFMVGTPLAKIPSEKVLNLLKHSKLMEEVNSTGEFKITNEGFQFLLQEINSQLWTLLLQYLKMIETSKMDLVDVLHFIFMLGALEVGKAYKIDALSETQRIMLQDMRDYGLVFQKHSNDSIFYPTKLALMLTSDTKTIRSASNAMDSVLRQNREEPSVNEDGANGKSTTDITTSDDLNKAGLKNQDIPDGSLIVETNFKIYSYSNSPLQIAVLSLFVHLKARFVNMVLGQITRESIRRALTNGITADQIIAYLETHAHPQMRRLAEEKLEKKLELDPNCKEPLQVLPPTVVDQIRLWQLELDRVITYEGSLYSDFETSQEYNLLSKYAQDIGVLLWKDDKKKKFFISKEGNSQVLDFAKRKLKKKQ
notes: Tfb2 (p52 homologue), subunit of yeast coreTFIIH; Tfb2C 412–513 as printed; Stood in the assays as part of coreTFIIH; also called yeast homologue of p52; source: purified from yeast as a subunit of coreTFIIH
B2: Ssl2 (natural protein, Saccharomyces cerevisiae, UniProt Q00578 1-843, looked up)
chain: MTDVEGYQPKSKGKIFPDMGESFFSSDEDSPATDAEIDENYDDNRETSEGRGERDTGAMVTGLKKPRKKTKSSRHTAADSSMNQMDAKDKALLQDTNSDIPADFVPDSVSGMFRSHDFSYLRLRPDHASRPLWISPSDGRIILESFSPLAEQAQDFLVTIAEPISRPSHIHEYKITAYSLYAAVSVGLETDDIISVLDRLSKVPVAESIINFIKGATISYGKVKLVIKHNRYFVETTQADILQMLLNDSVIGPLRIDSDHQVQPPEDVLQQQLQQTAGKPATNVNPNDVEAVFSAVIGGDNEREEEDDDIDAVHSFEIANESVEVVKKRCQEIDYPVLEEYDFRNDHRNPDLDIDLKPSTQIRPYQEKSLSKMFGNGRARSGIIVLPCGAGKTLVGITAACTIKKSVIVLCTSSVSVMQWRQQFLQWCTLQPENCAVFTSDNKEMFQTESGLVVSTYSMVANTRNRSHDSQKVMDFLTGREWGFIILDEVHVVPAAMFRRVVSTIAAHAKLGLTATLVREDDKIGDLNFLIGPKLYEANWMELSQKGHIANVQCAEVWCPMTAEFYQEYLRETARKRMLLYIMNPTKFQACQFLIQYHERRGDKIIVFSDNVYALQEYALKMGKPFIYGSTPQQERMNILQNFQYNDQINTIFLSKVGDTSIDLPEATCLIQISSHYGSRRQEAQRLGRILRAKRRNDEGFNAFFYSLVSKDTQEMYYSTKRQAFLVDQGYAFKVITHLHGMENIPNLAYASPRERRELLQEVLLKNEEAAGIEVGDDADNSVGRGSNGHKRFKSKAVRGEGSLSGLAGGEDMAYMEYSTNKNKELKEHHPLIRKMYYKNLKK
notes: Ssl2 (XPB homologue), subunit of yeast coreTFIIH; C-Ssl2 549–776, C-terminal region 771–843 as printed; Stood in the assays as part of coreTFIIH; also called yeast homologue of XPB; source: purified from yeast as a subunit of coreTFIIH
B3: Ssl1 (natural protein, yeast, UniProt Q04673 1-461, looked up)
chain: MAPVVISESEEDEDRVAITRRTKRQVHFDGEGDDRVDQQQQQHSSSHRDRDKHVQRKKKKRLSNRNLQGSNGGYAWEDEIKRSWDLVKVDDEGDMASLVASIVEARKKRTAKKNITPYQRGIIRSLILTLDCSEAMLEKDLRPNRHAMIIQYAIDFVHEFFDQNPISQMGIIIMRNGLAQLVSQVSGNPQDHIDALKSIRKQEPKGNPSLQNALEMARGLLLPVPAHCTREVLIVFGSLSTTDPGDIHQTIDSLVSEKIRVKVLGLSAQVAICKELCKATNYGDESFYKILLDETHLKELFNEAVTPLPVNKINKGFTLVKMGFPTRIFEDTPTFCSCHSKLVYGGYFCPNCHSKVCSLPTVCPCCDLMLILSTHLARSYHHLMPLKTFAEVPTTEKFRSEDCFSCQSRFPILKNHKNGKLLTSSRYRCEDCKQEFCVDCDVFIHEILHNCPGCESKPVIT
notes: Ssl1 (p44 homologue), subunit of yeast coreTFIIH; Stood in the assays as part of coreTFIIH; also called yeast homologue of p44; source: purified from yeast as a subunit of coreTFIIH

Key:
Conditions in all cases: both partners purified
Ssl2 = biological target: B2; test: cryo-EM structure; coreTFIIH and Rad4–Rad23–Rad33 on −24*/+24 AAF-DNA with ATP, glycerol gradient with glutaraldehyde; Map 1 3.86 Å (TFIIH), Map 2 9.2 Å, Map 3 7.9 Å; Rad4, Rad33 and the Tfb1 PH domain placed by rigid-body docking of known structures or homology models
Rad4–Rad23–Rad33 complex = biological target: T1, Rad4–Rad23–Rad33 complex (yeast, UniProt P14736 1-754; P32628 1-398; Q04231 1-177); test: cross-linking; XL-MS: TFIIH/Rad4–Rad23–Rad33 assembled on −24/+24 AAF-DNA, 1 mg/mL in 20 mM HEPES pH 7.6, 300 mM potassium acetate, 5% glycerol, 5 mM DTT; 6 mM DSBU on ice 2 h; MeroX, FDR <1%
T1 construct: Rad4 (XPC homologue), yeast; Rad23 (RAD23B homologue), yeast; Rad33 (CETN2 homologue), yeast; plasmid pETDuet-RAD33; also called Rad4–23–33; yeast homologue of XPC–RAD23B–CETN2; copies: + +
T1 sequence 1: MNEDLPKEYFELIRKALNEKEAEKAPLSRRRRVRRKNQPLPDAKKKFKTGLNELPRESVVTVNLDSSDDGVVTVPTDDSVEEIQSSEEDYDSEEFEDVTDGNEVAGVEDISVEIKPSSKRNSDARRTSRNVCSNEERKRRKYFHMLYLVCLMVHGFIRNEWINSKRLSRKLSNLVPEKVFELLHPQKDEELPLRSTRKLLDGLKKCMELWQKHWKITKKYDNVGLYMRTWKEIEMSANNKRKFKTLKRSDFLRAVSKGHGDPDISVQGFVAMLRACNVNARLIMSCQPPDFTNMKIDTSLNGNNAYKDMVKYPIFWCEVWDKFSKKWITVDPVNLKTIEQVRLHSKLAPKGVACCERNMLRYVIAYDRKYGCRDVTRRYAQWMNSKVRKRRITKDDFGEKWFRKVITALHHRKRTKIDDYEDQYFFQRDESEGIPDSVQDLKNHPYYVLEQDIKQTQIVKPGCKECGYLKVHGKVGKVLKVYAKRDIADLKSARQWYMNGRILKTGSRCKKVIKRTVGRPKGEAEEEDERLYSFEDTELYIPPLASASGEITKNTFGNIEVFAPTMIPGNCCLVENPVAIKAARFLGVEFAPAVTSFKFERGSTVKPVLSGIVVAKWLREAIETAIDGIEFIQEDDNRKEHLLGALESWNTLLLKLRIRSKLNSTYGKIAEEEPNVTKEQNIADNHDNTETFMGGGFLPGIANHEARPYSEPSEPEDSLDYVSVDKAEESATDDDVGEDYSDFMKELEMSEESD
T1 sequence 2: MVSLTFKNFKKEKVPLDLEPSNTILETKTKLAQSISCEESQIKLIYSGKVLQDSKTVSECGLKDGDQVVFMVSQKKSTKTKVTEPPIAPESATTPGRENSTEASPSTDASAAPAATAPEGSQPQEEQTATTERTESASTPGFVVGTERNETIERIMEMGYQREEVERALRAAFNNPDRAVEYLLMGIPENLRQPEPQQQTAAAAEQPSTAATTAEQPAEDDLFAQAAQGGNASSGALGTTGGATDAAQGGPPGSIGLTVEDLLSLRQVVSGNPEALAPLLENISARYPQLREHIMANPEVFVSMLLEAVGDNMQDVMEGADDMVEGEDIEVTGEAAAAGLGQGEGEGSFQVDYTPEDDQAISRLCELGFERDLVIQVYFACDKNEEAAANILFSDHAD
T1 sequence 3: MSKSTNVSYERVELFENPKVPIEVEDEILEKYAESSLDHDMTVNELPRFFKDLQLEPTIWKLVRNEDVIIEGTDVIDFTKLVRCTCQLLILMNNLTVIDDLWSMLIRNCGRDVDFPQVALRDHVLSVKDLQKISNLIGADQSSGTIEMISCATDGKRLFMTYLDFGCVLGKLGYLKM

Rad3 = biological target: T2, Rad3 (yeast, UniProt P06839 1-778); test: cryo-EM structure; coreTFIIH and Rad4–Rad23–Rad33 on −24*/+24 AAF-DNA with ATP, glycerol gradient with glutaraldehyde; Map 1 3.86 Å (TFIIH), Map 2 9.2 Å, Map 3 7.9 Å; Rad4, Rad33 and the Tfb1 PH domain placed by rigid-body docking of known structures or homology models
T2 construct: Rad3 (XPD homologue), subunit of yeast coreTFIIH; Stood in the assays as part of coreTFIIH; also called yeast homologue of XPD; source: purified from yeast as a subunit of coreTFIIH
T2 sequence (looked up): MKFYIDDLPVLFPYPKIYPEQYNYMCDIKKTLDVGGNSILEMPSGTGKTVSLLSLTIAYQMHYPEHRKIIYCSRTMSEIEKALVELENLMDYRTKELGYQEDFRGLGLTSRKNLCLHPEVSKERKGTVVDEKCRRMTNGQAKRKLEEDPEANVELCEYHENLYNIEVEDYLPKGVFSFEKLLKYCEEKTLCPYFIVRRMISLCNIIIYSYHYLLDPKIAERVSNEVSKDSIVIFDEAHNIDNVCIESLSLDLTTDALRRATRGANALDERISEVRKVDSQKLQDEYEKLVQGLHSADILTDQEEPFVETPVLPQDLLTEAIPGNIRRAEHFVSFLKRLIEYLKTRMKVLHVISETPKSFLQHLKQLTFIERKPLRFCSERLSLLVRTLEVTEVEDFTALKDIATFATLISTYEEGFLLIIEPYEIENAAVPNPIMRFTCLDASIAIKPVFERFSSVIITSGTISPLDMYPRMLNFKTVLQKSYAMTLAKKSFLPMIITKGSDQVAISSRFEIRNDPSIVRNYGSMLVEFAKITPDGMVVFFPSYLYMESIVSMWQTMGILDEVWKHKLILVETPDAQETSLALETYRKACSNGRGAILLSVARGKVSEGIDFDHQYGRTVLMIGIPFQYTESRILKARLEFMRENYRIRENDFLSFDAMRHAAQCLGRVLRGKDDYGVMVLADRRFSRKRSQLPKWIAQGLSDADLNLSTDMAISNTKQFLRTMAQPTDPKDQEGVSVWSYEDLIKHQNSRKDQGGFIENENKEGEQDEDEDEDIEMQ

B1: binds (Ssl2).

B2: binds (Rad4–Rad23–Rad33 complex).

B3: binds (Rad3).

From publication PMC8184850, “Cryo-EM structure of TFIIH/Rad4–Rad23–Rad33 in damaged DNA opening in nucleotide excision repair” (Nature Communications, 2021)
